Data reported in patent publication US20180021429A1, “ANTICANCER AGENTS OR ANTIMETASTATIC AGENTS USING FSTL1 AND COMBINATION DRUG THEREOF” (PHARMA FOODS INTERNATIONAL CO., LTD., priority 2015, published 2018).
Substitutions are numbered along the chain they refer to.

T1: FSTL1 (Homo sapiens, UniProt Q12841)
T1 sequence (Q12841 21-308): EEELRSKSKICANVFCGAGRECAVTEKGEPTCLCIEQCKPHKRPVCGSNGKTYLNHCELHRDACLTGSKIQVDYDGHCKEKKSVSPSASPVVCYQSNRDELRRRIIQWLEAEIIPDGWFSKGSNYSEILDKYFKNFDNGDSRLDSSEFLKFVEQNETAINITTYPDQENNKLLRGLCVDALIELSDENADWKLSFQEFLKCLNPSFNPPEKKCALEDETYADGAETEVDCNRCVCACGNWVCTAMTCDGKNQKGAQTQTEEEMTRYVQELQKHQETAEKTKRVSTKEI

B1: #33: chicken-mouse chimeric anti-FSTL1 antibody clone; variable regions SEQ ID NO: 823 (light), 825 (heavy) (antibody, V domains shown)
VH: AVTLDESGGGLQTPGGGLSLVCKASGFTFSSFNMNWVRQAPGKGLEYVAEISGTGSSTYYGSAVKGRATISRDNGQSTVRLQLNNLRAEDTATYFCARGDGAYSIDAWGHGTEVIVSS
VL: ASTQPSSVSANPGETVEITCSGDSSYYGWFQQKSPGSAPVTVIYDNTNRPSDIPSRFSGSKSGSTATLTITGVRAEDEAVYYCGGYDSSTYDGIFGAGTTLTVL
modifications: mouse constant regions
B2: #6-55: chicken-mouse chimeric anti-FSTL1 antibody clone; variable regions SEQ ID NO: 783 (light), 785 (heavy) (antibody, V domains shown)
VH: AVTLDESGGGLQTPGGALSLVCKGSGFTFTSVTMQWVRQAPGKGLEWVASVCSGSSTYYAPAVKGRATISRDNGQSTVRLQLSNLRPEDTGTYYCAKIAGRARWSCTSAAYNIDAWGHGTEVIVSS
VL: ASTQPSSVSAIPGETVKITCSGGGNNYGWYQQRSPGSAPVTVIYYNDNRPSNIPSRFSGSTSGSTSTLTITGVQADDEAIYYCGSWDSNTDSGIFGAGTTLTVL
modifications: mouse constant regions
B3: #7-34: chicken-mouse chimeric anti-FSTL1 antibody clone; variable regions SEQ ID NO: 787 (light), 789 (heavy) (antibody, V domains shown)
VH: AVTLDESGGGLQTPGGGLSLVCKASGFTFSSVTMQWVRQAPGKGLEWVASICSGSSTYYGPAVKGRATISRDNGQNTVRLQLNNLRAEDTATYYCAKIVGRGRWSCTSAAYNIDAWGHGTEVIVSS
VL: B2 VL with I11N, R33K, D47N, D76E, I80V, W86Y, D87E, S88G, N89S
modifications: mouse constant regions
B4: #8-1: chicken-mouse chimeric anti-FSTL1 antibody clone; variable regions SEQ ID NO: 791 (light), 793 (heavy) (antibody, V domains shown)
VH: AVTLDESGGGLQTPGGALSLVCKGSGFTFSSFNMFWVRQAPGKGLEWVAGIGKDGVPKYGAAVDGRATISKDNGQSTMRLQLNNLRAEDTGTYFCAKAAGGCSYDWCGIYAGDIDTWGHGTEVIVSS
VL: ASTQPSSVSANPGEAVKITCSGGSGSYYGWYQQKSPGSAPVTVIYNNNQRPSDIPSRFSGSKSGSTATLTITGVQAEDEAVYFCGGYDSSSGHGGIFGAGTTLTVL
modifications: mouse constant regions
B5: #13: chicken-mouse chimeric anti-FSTL1 antibody clone; variable regions SEQ ID NO: 815 (light), 817 (heavy) (antibody, V domains shown)
VH: B3 VH
VL: ASTQPSSVSANPGETVKITCSGGGNNYGWYQQKSPGSAPVTVIYNNNNRPSNIPSRFSGSKSGSTNTLTITGVQAEDEAVYYCGSYDSSSDSGIFGAGTTLTVL
modifications: mouse constant regions

Legend:
[1] = system: GFP+F10-snail+ tumor cells; assay: In vivo drug efficacy of each anti-FSTL1 antibody clone, Snail+ tumor bone metastasis model (Example 32); set-up: species or system mouse; settings: intraperitoneal 10 mg/kg on days 4 and 7; for mouse survival period (life-prolonging effect): FIG. 27; for suppressive activity against subcutaneous tumor growth: FIG. 26, vs control antibody
Description: • Day 0: transplantation of GFP+F10-snail+ tumor cells (3×10^5 cells subcutaneously & 2×10^4 cells intravenously) • Day 4: intraperitoneal administration of the antibody (first dose, 10 mg/kg) • Day 7: intraperitoneal administration of the antibody (second dose, 10 mg/kg)
Subcutaneous tumor was measured 4, 7, 10, 14, 17, 20, and 23 days after tumor cell transplantation.

FSTL1 = target: T1, FSTL1; assay: Affinity of mouse chimeric antibodies for human FSTL1, Biacore T-200 (Example 33); type: binding
Description: The mouse chimeric antibodies were immobilized onto Sensor Chip CM5 (GE Healthcare Japan Corp., BR-1005-30) using Mouse Antibody Capture Kit (GE Healthcare Japan Corp., BR-1008-38), and their affinity for human FSTL1 was calculated using Biacore T-200 (GE Healthcare Japan Corp.).
First, the exhaustive activity comparison of the obtained antibodies was conducted with the human FSTL1 concentration fixed to 10 μg/ml (Table 33-1, FIG. 58).
Next, the KD values of clone #6-55, #7-34, and #13 presumed to have high affinity in FIG. 58 were calculated with the antigen concentration adjusted to 0 to 20 μg/ml (Table 35-2).
First, the exhaustive activity comparison of the obtained antibodies was conducted with the human FSTL1 concentration fixed to 10 μg/ml (Table 33-1, FIG. 90).
Next, the KD values of clone #6-55, #7-34, and #13 presumed to have high affinity in FIG. 90 were calculated with the antigen concentration adjusted to 0 to 20 μg/ml (Table 35-2).

[2] = system: GFP-positive and Snail-positive B16-F10 tumor cells; assay: In vivo, intratumoral administration, Snail-positive B16-F10 bone metastasis model (Example 17); set-up: species or system mouse; settings: intratumoral 200 μg/0.1 mL/tumor on day 7; day 14
From the text: Three antibodies were comparatively analyzed for their antitumor effects and an immunosuppression-mitigating effect using bone metastasis models in which mouse melanoma cells B16-F10 forced to express Snail were subcutaneously and intravenously transplanted in C57BL/6N mice.
1. Experiment Group (n=5) • 1. No treatment • 2. Control IgG (anti-DNP) • 3. Anti-FSTL1 Clone #6-55 • 4. Anti-FSTL1 Clone #7-34 • 5. Anti-FSTL1 Clone #8-1
• Day 0: transplantation of GFP-positive and Snail-positive B16-F10 tumor cells (5×10^5 cells subcutaneously & 1×10^5 cells intravenously) • Day 7: intratumoral administration of the antibody (200 μg/0.1 mL/tumor) • Day 14: various assays (with a focus on flow cytometry analysis)
• Effects on the growth of subcutaneous tumor (calculation of tumor volume by tumor size measurement): measured 7, 11, and 14 days after tumor implantation (FIG. 41C) • Effects on bone metastasis (GFP-positive tumor cells in bone marrow) (FIG. 41A) • Effects on the expansion of mesenchymal stem cells (CD45-negative cells in bone marrow and in the spleen) (FIGS. 41B and 41D) • Effects on the expansion of immunosuppressive Treg cells (CD4-positive and Foxp3-positive cells in bone marrow or the spleen) (FIG. 41D) • Other immunosuppressive properties (FIG. 41D)
In order to evaluate in vivo antibody activity, antitumor effects and immunosuppression-mitigating effects were comparatively analyzed using bone metastasis models in which mouse melanoma cells ([…]) forced to express Snail were subcutaneously and intravenously transplanted in C57BL/6N mice. […]
It is known that when Snail-positive tumor cells are subcutaneously or intravenously transplanted to mice, the tumor metastasizes preferentially to bone marrow in addition to various organs, and this incurs the expansion of mesenchymal stem cells (MSCs) originating in the bone marrow, thereby systemically and strongly suppressing the induction of antitumor immunity (Cancer Research 73: 6185, 2013). […] The percentage (%) of CD45^− cells in the bone marrow cells was analyzed by flow cytometry. […]

Row | Molecule | mouse survival period (life-prolonging effect) [1] | affinity in an assay system using surface plasmon resonance (FSTL1) | suppressive activity against subcutaneous tumor growth [1] | bone metastasis (GFP-positive tumor cells in bone marrow) [2]
1 | B1 | therapeutic effects equal to or higher than those of #6-55 | strong affinity |  | 
2 | B2 | statistically significant life-prolonging effect | strong affinity | statistically significant suppressive activity | suppressed
3 | B3 |  | strong affinity |  | no suppressive effect was seen
4 | B4 |  |  |  | suppressed
5 | B5 |  | strong affinity | all of the clones except for #13 exhibited statistically significant suppressive activity | 
